B1: human PDGF-BB (ligand)
chain 1: SLGSLTIAEPAMIAECKTRTEVFEISRRLIDRTNANFLVWPPCVEVQRCSGCCNNRNVQCRPTQVQLRPVQVRKIEIVRKKPIFKKATVTLEDHLACKCETVAAARPVT
chain 2: SLGSLTIAEPAMIAECKTRTEVFEISRRLIDRTNANFLVWPPCVEVQRCSGCCNNRNVQCRPTQVQLRPVQVRKIEIVRKKPIFKKATVTLEDHLACKCETVAAARPVT
notes: The name BB means a homodimer of B chains
B2: Vlambda16F4 rHumaab (antibody, human IgG1, V domains shown)
VH: GLVKPLETLSLTCSVSGGSVSDGSYFWNWIRQPPGKGLEWIGYAYSRGTTNYSPSLKGRITISVDKSKNQISLKLTSVTPADTAVYYCARDSFEIWGQGTMVTV
VL: QSALTQPASVSGSPGQSITISCTGTSSDVGGYNYVSWYQHHPGKAPKLMIYEVSHRPSGVSNRFSGSKSGNTASLTISGLQAEDEADYYCSSYTSSSHVVFGGGTKLTVL
notes: Tested as a whole human IgG1 made in CHO cells (pDR12 vector, b12 constant regions, with Fc)
B3: Vk16F4 rHumaab (antibody, human IgG1, V domains shown)
VH: GLVKPLETLSLTCSVSGGSVSDGSYFWNWIRQPPGKGLEWIGYAYSRGTTNYSPSLKGRITISVDKSKNQISLKLTSVTPADTAVYYCARDSFEIWGQGTMVTV
VL: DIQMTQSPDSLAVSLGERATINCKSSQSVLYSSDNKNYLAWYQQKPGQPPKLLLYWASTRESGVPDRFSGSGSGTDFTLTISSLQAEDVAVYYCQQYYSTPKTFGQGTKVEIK
notes: Tested as a whole human IgG1 made in CHO cells (pDR12 vector, b12 constant regions, with Fc); also called Vκ16F4; rHumaab VK16F4
B4: Vk13B8 rHumaab (antibody, human IgG1, V domains shown)
VH: GLVKPLETLSLTCSVSGGSVSDGSYFWNWIRQPPGKGLEWIGYAYSRGTTNYSPSLKGRITISVDKSKNQISLKLTSVTPADTAVYYCARDSFEIWGQGTMVTV
VL: DIQMTQSPSSLSASVGDRVTITCRASQGISNYLAWFQQKPGKAPKSLIYAASSLQSGVPSKFSGSGSGTDFTLTISSLQPEDFATYYCQQYNSFPYTFGQGTKLEIK
notes: Tested as a whole human IgG1 made in CHO cells (pDR12 vector, constant regions of antibody b12, with Fc); also called Vκ13B8; recombinant human monoclonal auto-antibody Vk13B8

Target: T1, His-tagged PDGFR alpha (aminoacids 1-834 of human PDGFR alpha fused to a 6×histidine tag) (human, UniProt P16234 24-834)
T1 construct: Complete extracellular and transmembrane regions plus part of the intracellular domain; Expressed in HeLa cells, purified from lysates and immobilized on the IAsys biosensor; The cDNA encodes residues 1-834; also called immobilized His-tagged PDGFR alpha; truncated conformer of PDGFR alpha
T1 sequence (P16234 other isoform, or with tags, fused parts or gaps): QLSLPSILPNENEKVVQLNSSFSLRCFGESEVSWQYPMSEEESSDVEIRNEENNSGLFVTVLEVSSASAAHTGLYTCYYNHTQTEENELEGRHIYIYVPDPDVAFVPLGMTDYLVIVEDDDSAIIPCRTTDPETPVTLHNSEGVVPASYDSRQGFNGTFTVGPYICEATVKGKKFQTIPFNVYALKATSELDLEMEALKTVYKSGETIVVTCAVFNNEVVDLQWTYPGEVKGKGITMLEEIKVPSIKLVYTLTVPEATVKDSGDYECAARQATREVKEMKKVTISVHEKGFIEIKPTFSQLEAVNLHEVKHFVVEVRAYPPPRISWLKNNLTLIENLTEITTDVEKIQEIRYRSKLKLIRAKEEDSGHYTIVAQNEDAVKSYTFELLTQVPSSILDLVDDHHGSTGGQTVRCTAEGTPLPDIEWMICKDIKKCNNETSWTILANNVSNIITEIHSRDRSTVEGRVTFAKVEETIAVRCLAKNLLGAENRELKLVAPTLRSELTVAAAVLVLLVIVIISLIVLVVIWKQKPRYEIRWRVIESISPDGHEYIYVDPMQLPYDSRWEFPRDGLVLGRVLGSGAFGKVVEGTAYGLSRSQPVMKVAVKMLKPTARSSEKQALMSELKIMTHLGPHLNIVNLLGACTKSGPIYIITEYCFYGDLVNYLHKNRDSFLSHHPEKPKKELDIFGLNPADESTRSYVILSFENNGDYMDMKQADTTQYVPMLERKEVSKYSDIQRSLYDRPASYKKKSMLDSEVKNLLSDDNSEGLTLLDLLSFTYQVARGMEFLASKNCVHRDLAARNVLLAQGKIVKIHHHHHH
Assay: IAsys optical biosensor, immobilized His-tagged PDGFR alpha
Description: A detailed characterization of rHumaab interaction with human PDGFR alpha was performed on an optical biosensor, using as a molecular bait a homemade truncated conformer of this receptor containing the complete extracellular and transmembrane regions joined to a poly-histidine tail (HIS tag) replacing part of the intracellular domain, and serving both as an anchor to the biosensor surface and as a spacer. Preservation of proper folding of the immobilized receptor into a naive-like conformation was verified by monitoring the interaction with its natural binding partner (PDGF-BB) and with two mouse monoclonal antibodies specific for conformational PDGFR alpha epitopes (FIG. 6a). Using this approach, both kinetics and equilibrium parameters of the interaction between PDGF-BB, each rHumaab and PDGFR alpha were determined. […] Additionally, the analysis of association and dissociation rate constants for soluble ligands binding to PDGFR alpha, further defined the mechanistic properties of the macromolecular recognition process. […] Conversely, differences in equilibrium constants among rHumaab were reflected by corresponding differences in dissociation rate constants (kdiss=, 0.035 s⁻¹, 0.02 s⁻¹, and 0.003 s⁻¹, respectively for Vk13B8, Vk16F4 and Vlambda16F4).

Binder | Kd | kon | koff
B1 | 0.23 nM | 3e+07 M⁻¹ s⁻¹ | 
B2 | 16.6 nM |  | 0.003 s⁻¹
B3 | 71.4 nM |  | 0.02 s⁻¹
B4 | 184 nM |  | 0.035 s⁻¹
